Assay results: article PMC2042504

Key:
[1] = target: 35S-labeled Vpu TM domain, in vitro translated (gel permeation) (HIV-1, isolate not stated (NL4-3 and R5 cloned)); experiment: SEC; gel permeation of 35S-labeled in vitro translation mixture on Sephacryl S200HR in PBS, calibrated with lysozyme and BSA; pentamer and monomer peaks
[2] = target: 35S-labeled full-length Vpu protein, in vitro translated (gel permeation) (HIV-1, isolate not stated (NL4-3 and R5 cloned)); experiment: as above
[3] = target: Vpu fused to ECFP or to EYFP (HIV-1, isolate not stated (NL4-3 and R5 cloned)); experiment: FRET or BRET; acceptor photobleaching FRET of ECFP-Vpu and EYFP-Vpu in live U2-OS cells, regions that appeared to be Golgi or unidentified vesicles
[4] = target: Vpu fused to ECFP or to EYFP (HIV-1, isolate not stated (NL4-3 and R5 cloned)); experiment: FRET or BRET; acceptor photobleaching FRET of ECFP-Vpu and EYFP-Vpu in live COS-1 cells with low expression, punctate and vesicular distribution

Question: What does the source list for “35S-labeled Vpu TM domain, in vitro translated (gel permeation) (domain or fragment)”?
Answer: percent of the radioactivity in the oligomer peak [1]: 10%; stoichiometry N [1]: 5

Question: “35S-labeled full-length Vpu protein, in vitro translated (gel permeation) (natural protein)” was tested. Which percent of the radioactivity in the oligomer peak [2] did it give?
Answer: 10%

Question: And the stoichiometry N [2]?
Answer: 5

Question: With “Vpu fused to ECFP or to EYFP (natural protein)” as the substance, how does the FRET efficiency [3] read?
Answer: 26%

Question: What about the FRET efficiency [4] of the same substance?
Answer: 18.5%
